Assay results taken from US20140087995A1 (published 2014).
Numbered stars: 1 amine (or outer) side, 2 acyl side, 3 side chain; on linkers, the order of the positions; unused ones are H or OH. Bridge positions count the residues as written; N and C are the ends. Side chains are listed from the residue outwards. Ends that are not written are not given here. * marks the point of attachment. C20 diacid = O=C(O)CCCCCCCCCCCCCCCCCCC(=O)*; γGlu = O=C(O)[C@H](CCC(=O)[*:2])N[*:1]; AEEA = NCCOCCOCC(=O)O

T1: human calcitonin receptor (human, UniProt P30988 25-474)
T1 sequence (looked up): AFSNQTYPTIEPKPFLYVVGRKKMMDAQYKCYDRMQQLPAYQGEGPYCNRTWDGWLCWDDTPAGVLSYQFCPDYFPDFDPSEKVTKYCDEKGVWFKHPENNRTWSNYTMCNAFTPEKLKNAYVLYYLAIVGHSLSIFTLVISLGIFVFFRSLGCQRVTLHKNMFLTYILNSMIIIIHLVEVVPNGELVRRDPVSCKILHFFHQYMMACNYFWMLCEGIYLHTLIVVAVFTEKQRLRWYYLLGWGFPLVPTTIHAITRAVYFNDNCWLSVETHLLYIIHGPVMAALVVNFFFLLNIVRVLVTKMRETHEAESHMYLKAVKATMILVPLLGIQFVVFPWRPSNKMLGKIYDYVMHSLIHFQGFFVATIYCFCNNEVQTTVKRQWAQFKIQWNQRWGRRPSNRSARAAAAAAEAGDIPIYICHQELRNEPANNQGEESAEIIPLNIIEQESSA

B1: N^ε1-[2-[2-[2-[[(4S)-4-carboxy-4-(19-carboxynonadecanoylamino)butanoyl]amino]ethoxy]ethoxy]acetyl]-[Arg17,Pro21,Pro27,Arg34]-h-amylin (peptide)
peptide: K([AEEA-γGlu-C20 diacid])CNTATCATQRLANFLRHSSPNFGAIPSSTNVGRNTY-NH2
modifications: disulfide 2-7; N-terminus assumed
SMILES: CC[C@H](C)[C@H](NC(=O)[C@H](C)NC(=O)CNC(=O)[C@H](Cc1ccccc1)NC(=O)[C@H](CC(N)=O)NC(=O)[C@@H]1CCCN1C(=O)[C@H](CO)NC(=O)[C@H](CO)NC(=O)[C@H](Cc1c[nH]cn1)NC(=O)[C@H](CCCNC(=N)N)NC(=O)[C@H](CC(C)C)NC(=O)[C@H](Cc1ccccc1)NC(=O)[C@H](CC(N)=O)NC(=O)[C@H](C)NC(=O)[C@H](CC(C)C)NC(=O)[C@H](CCCNC(=N)N)NC(=O)[C@H](CCC(N)=O)NC(=O)[C@@H](NC(=O)[C@H](C)NC(=O)[C@@H]1CSSC[C@H](NC(=O)[C@@H](N)CCCCNC(=O)COCCOCCNC(=O)CC[C@H](NC(=O)CCCCCCCCCCCCCCCCCCC(=O)O)C(=O)O)C(=O)N[C@@H](CC(N)=O)C(=O)N[C@@H]([C@@H](C)O)C(=O)N[C@@H](C)C(=O)N[C@@H]([C@@H](C)O)C(=O)N1)[C@@H](C)O)C(=O)N1CCC[C@H]1C(=O)N[C@@H](CO)C(=O)N[C@@H](CO)C(=O)N[C@H](C(=O)N[C@@H](CC(N)=O)C(=O)N[C@H](C(=O)NCC(=O)N[C@@H](CCCNC(=N)N)C(=O)N[C@@H](CC(N)=O)C(=O)N[C@H](C(=O)N[C@@H](Cc1ccc(O)cc1)C(N)=O)[C@@H](C)O)C(C)C)[C@@H](C)O
notes: also called compound 78
B2: N^ε1-[2-[2-[2-[[(4S)-4-carboxy-4-(19-carboxynonadecanoylamino)butanoyl]amino]ethoxy]ethoxy]acetyl]-[Arg17,Pro21,Pro27,His34]-h-amylin (peptide)
peptide: K([AEEA-γGlu-C20 diacid])CNTATCATQRLANFLRHSSPNFGAIPSSTNVGHNTY-NH2
modifications: disulfide 2-7; N-terminus assumed
SMILES: CC[C@H](C)[C@H](NC(=O)[C@H](C)NC(=O)CNC(=O)[C@H](Cc1ccccc1)NC(=O)[C@H](CC(N)=O)NC(=O)[C@@H]1CCCN1C(=O)[C@H](CO)NC(=O)[C@H](CO)NC(=O)[C@H](Cc1c[nH]cn1)NC(=O)[C@H](CCCNC(=N)N)NC(=O)[C@H](CC(C)C)NC(=O)[C@H](Cc1ccccc1)NC(=O)[C@H](CC(N)=O)NC(=O)[C@H](C)NC(=O)[C@H](CC(C)C)NC(=O)[C@H](CCCNC(=N)N)NC(=O)[C@H](CCC(N)=O)NC(=O)[C@@H](NC(=O)[C@H](C)NC(=O)[C@@H]1CSSC[C@H](NC(=O)[C@@H](N)CCCCNC(=O)COCCOCCNC(=O)CC[C@H](NC(=O)CCCCCCCCCCCCCCCCCCC(=O)O)C(=O)O)C(=O)N[C@@H](CC(N)=O)C(=O)N[C@@H]([C@@H](C)O)C(=O)N[C@@H](C)C(=O)N[C@@H]([C@@H](C)O)C(=O)N1)[C@@H](C)O)C(=O)N1CCC[C@H]1C(=O)N[C@@H](CO)C(=O)N[C@@H](CO)C(=O)N[C@H](C(=O)N[C@@H](CC(N)=O)C(=O)N[C@H](C(=O)NCC(=O)N[C@@H](Cc1c[nH]cn1)C(=O)N[C@@H](CC(N)=O)C(=O)N[C@H](C(=O)N[C@@H](Cc1ccc(O)cc1)C(N)=O)[C@@H](C)O)C(C)C)[C@@H](C)O
notes: also called compound 76
B3: N^ε1-[2-[2-[2-[[(4S)-4-carboxy-4-(19-carboxynonadecanoylamino)butanoyl]amino]ethoxy]ethoxy]acetyl]-[Gly14,Arg17,Pro21,Pro27,Pro31]-h-amylin (peptide)
peptide: K([AEEA-γGlu-C20 diacid])CNTATCATQRLAGFLRHSSPNFGAIPSSTPVGSNTY-NH2
modifications: disulfide 2-7; N-terminus assumed
SMILES: CC[C@H](C)[C@H](NC(=O)[C@H](C)NC(=O)CNC(=O)[C@H](Cc1ccccc1)NC(=O)[C@H](CC(N)=O)NC(=O)[C@@H]1CCCN1C(=O)[C@H](CO)NC(=O)[C@H](CO)NC(=O)[C@H](Cc1c[nH]cn1)NC(=O)[C@H](CCCNC(=N)N)NC(=O)[C@H](CC(C)C)NC(=O)[C@H](Cc1ccccc1)NC(=O)CNC(=O)[C@H](C)NC(=O)[C@H](CC(C)C)NC(=O)[C@H](CCCNC(=N)N)NC(=O)[C@H](CCC(N)=O)NC(=O)[C@@H](NC(=O)[C@H](C)NC(=O)[C@@H]1CSSC[C@H](NC(=O)[C@@H](N)CCCCNC(=O)COCCOCCNC(=O)CC[C@H](NC(=O)CCCCCCCCCCCCCCCCCCC(=O)O)C(=O)O)C(=O)N[C@@H](CC(N)=O)C(=O)N[C@@H]([C@@H](C)O)C(=O)N[C@@H](C)C(=O)N[C@@H]([C@@H](C)O)C(=O)N1)[C@@H](C)O)C(=O)N1CCC[C@H]1C(=O)N[C@@H](CO)C(=O)N[C@@H](CO)C(=O)N[C@H](C(=O)N1CCC[C@H]1C(=O)N[C@H](C(=O)NCC(=O)N[C@@H](CO)C(=O)N[C@@H](CC(N)=O)C(=O)N[C@H](C(=O)N[C@@H](Cc1ccc(O)cc1)C(N)=O)[C@@H](C)O)C(C)C)[C@@H](C)O
notes: also called compound 71
B4: N^ε1-[2-[2-[2-[[(4S)-4-carboxy-4-(19-carboxynonadecanoylamino)butanoyl]amino]ethoxy]ethoxy]acetyl]-[His14,Arg17,Pro21,Pro27,His34]-h-amylin (peptide)
peptide: K([AEEA-γGlu-C20 diacid])CNTATCATQRLAHFLRHSSPNFGAIPSSTNVGHNTY-NH2
modifications: disulfide 2-7; N-terminus assumed
SMILES: CC[C@H](C)[C@H](NC(=O)[C@H](C)NC(=O)CNC(=O)[C@H](Cc1ccccc1)NC(=O)[C@H](CC(N)=O)NC(=O)[C@@H]1CCCN1C(=O)[C@H](CO)NC(=O)[C@H](CO)NC(=O)[C@H](Cc1c[nH]cn1)NC(=O)[C@H](CCCNC(=N)N)NC(=O)[C@H](CC(C)C)NC(=O)[C@H](Cc1ccccc1)NC(=O)[C@H](Cc1c[nH]cn1)NC(=O)[C@H](C)NC(=O)[C@H](CC(C)C)NC(=O)[C@H](CCCNC(=N)N)NC(=O)[C@H](CCC(N)=O)NC(=O)[C@@H](NC(=O)[C@H](C)NC(=O)[C@@H]1CSSC[C@H](NC(=O)[C@@H](N)CCCCNC(=O)COCCOCCNC(=O)CC[C@H](NC(=O)CCCCCCCCCCCCCCCCCCC(=O)O)C(=O)O)C(=O)N[C@@H](CC(N)=O)C(=O)N[C@@H]([C@@H](C)O)C(=O)N[C@@H](C)C(=O)N[C@@H]([C@@H](C)O)C(=O)N1)[C@@H](C)O)C(=O)N1CCC[C@H]1C(=O)N[C@@H](CO)C(=O)N[C@@H](CO)C(=O)N[C@H](C(=O)N[C@@H](CC(N)=O)C(=O)N[C@H](C(=O)NCC(=O)N[C@@H](Cc1c[nH]cn1)C(=O)N[C@@H](CC(N)=O)C(=O)N[C@H](C(=O)N[C@@H](Cc1ccc(O)cc1)C(N)=O)[C@@H](C)O)C(C)C)[C@@H](C)O
notes: also called compound 80
B5: N^ε1-[2-[2-[2-[[(4S)-4-carboxy-4-(19-carboxynonadecanoylamino)butanoyl]amino]ethoxy]ethoxy]acetyl]-[His14,Arg17,Pro21,Pro27,Arg34]-h-amylin (peptide)
peptide: K([AEEA-γGlu-C20 diacid])CNTATCATQRLAHFLRHSSPNFGAIPSSTNVGRNTY-NH2
modifications: disulfide 2-7; N-terminus assumed
SMILES: CC[C@H](C)[C@H](NC(=O)[C@H](C)NC(=O)CNC(=O)[C@H](Cc1ccccc1)NC(=O)[C@H](CC(N)=O)NC(=O)[C@@H]1CCCN1C(=O)[C@H](CO)NC(=O)[C@H](CO)NC(=O)[C@H](Cc1c[nH]cn1)NC(=O)[C@H](CCCNC(=N)N)NC(=O)[C@H](CC(C)C)NC(=O)[C@H](Cc1ccccc1)NC(=O)[C@H](Cc1c[nH]cn1)NC(=O)[C@H](C)NC(=O)[C@H](CC(C)C)NC(=O)[C@H](CCCNC(=N)N)NC(=O)[C@H](CCC(N)=O)NC(=O)[C@@H](NC(=O)[C@H](C)NC(=O)[C@@H]1CSSC[C@H](NC(=O)[C@@H](N)CCCCNC(=O)COCCOCCNC(=O)CC[C@H](NC(=O)CCCCCCCCCCCCCCCCCCC(=O)O)C(=O)O)C(=O)N[C@@H](CC(N)=O)C(=O)N[C@@H]([C@@H](C)O)C(=O)N[C@@H](C)C(=O)N[C@@H]([C@@H](C)O)C(=O)N1)[C@@H](C)O)C(=O)N1CCC[C@H]1C(=O)N[C@@H](CO)C(=O)N[C@@H](CO)C(=O)N[C@H](C(=O)N[C@@H](CC(N)=O)C(=O)N[C@H](C(=O)NCC(=O)N[C@@H](CCCNC(=N)N)C(=O)N[C@@H](CC(N)=O)C(=O)N[C@H](C(=O)N[C@@H](Cc1ccc(O)cc1)C(N)=O)[C@@H](C)O)C(C)C)[C@@H](C)O
notes: also called compound 84

target: T1, human calcitonin receptor; test: cell-based or functional assay

| hCTR funct. EC50 [nM] | Binder |
| --- | --- |
| 8.17 | B1 |
| 7.37 | B2 |
| 0.527 | B3 |
| 2.14 | B4 |
| 5.49 | B5 |
